According to article PMC11772326:

T1: ZmUB3 (Zea mays, UniProt A0A804P0G2 1-407)
T1 sequence: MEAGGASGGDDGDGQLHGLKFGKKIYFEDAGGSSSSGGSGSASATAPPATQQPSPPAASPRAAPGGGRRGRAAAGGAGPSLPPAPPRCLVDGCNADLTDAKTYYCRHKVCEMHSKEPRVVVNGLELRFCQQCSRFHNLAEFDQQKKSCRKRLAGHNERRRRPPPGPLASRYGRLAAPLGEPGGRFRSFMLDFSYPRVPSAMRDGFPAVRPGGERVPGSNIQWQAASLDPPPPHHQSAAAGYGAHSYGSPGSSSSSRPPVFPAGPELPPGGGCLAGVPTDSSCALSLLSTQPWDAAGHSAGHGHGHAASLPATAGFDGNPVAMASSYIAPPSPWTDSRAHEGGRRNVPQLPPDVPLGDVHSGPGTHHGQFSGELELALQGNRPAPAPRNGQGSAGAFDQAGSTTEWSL

B1: ZmSWEET13c MBS 40 bp probe (dsDNA)
DNA 1: ATGCTGTATTGAGTCCCCCGTTGTCGGAAATTAAAATTAT
DNA 2: ATAATTTTAATTTCCGACAACGGGGGACTCAATACAGCAT
B2: ZmMYB63 promoter GTAC 40 bp probe (dsDNA)
DNA 1: AAGTTTTGCGCACAGTGGTACGGAGGCGGACTGCTCCAAT
DNA 2: ATTGGAGCAGTCCGCCTCCGTACCACTGTGCGCAAAACTT
B3: ZmSWEET10 MBS 40 bp probe (dsDNA)
DNA 1: TCCCGGCCCTGTGCTGATAACTGTCTCTCTTTATTACGTG
DNA 2: CACGTAATAAAGAGAGACAGTTATCAGCACAGGGCCGGGA
B4: ZmLHT14 MBS 40 bp probe (dsDNA)
DNA 1: GCGGTGCCGGAGTAGATAACTGGTACTACAAAACACAATA
DNA 2: TATTGTGTTTTGTAGTACCAGTTATCTACTCCGGCACCGC
B5: ZmMYB42 promoter GTAC 40 bp probe (dsDNA)
DNA 1: TAACAAGGGCTTAACATGGTACGGTTTATTATATGTCAGA
DNA 2: TCTGACATATAATAAACCGTACCATGTTAAGCCCTTGTTA

Experiments:
ZmMYB42 = ZmMYB42 (Zea mays, UniProt K7V4N7 1-264); assay: EMSA
ZmUB3 = target: T1, ZmUB3; assay: EMSA

Row | Binder | binding result (ZmMYB42) | binding result (ZmUB3)
1 | B1 | binds | 
2 | B2 |  | binds
3 | B3 | binds | 
4 | B4 | binds | 
5 | B5 |  | binds
